Results published in US20140087995A1 (published 2014).
Each block holds one binder with its values, some of them ahead of it. Numbered stars: 1 amine (or outer) side, 2 acyl side, 3 side chain; on linkers, the order of the positions; unused ones are H or OH. Bridge positions count the residues as written; N and C are the ends. Side chains are listed from the residue outwards. Ends that are not written are not given here. * marks the point of attachment. C20 diacid = O=C(O)CCCCCCCCCCCCCCCCCCC(=O)*; γGlu = O=C(O)[C@H](CCC(=O)[*:2])N[*:1]

Legend:
[1] = molecular target: T1, human calcitonin receptor (human, UniProt P30988 25-474); test: SPA competition with 125I-calcitonin on membranes of BHK cells with human calcitonin receptor (Assay VII)
T1 construct: whole, on cells; Assay used cell membranes, not intact cells; also called hCTR; hCT
T1 sequence (looked up): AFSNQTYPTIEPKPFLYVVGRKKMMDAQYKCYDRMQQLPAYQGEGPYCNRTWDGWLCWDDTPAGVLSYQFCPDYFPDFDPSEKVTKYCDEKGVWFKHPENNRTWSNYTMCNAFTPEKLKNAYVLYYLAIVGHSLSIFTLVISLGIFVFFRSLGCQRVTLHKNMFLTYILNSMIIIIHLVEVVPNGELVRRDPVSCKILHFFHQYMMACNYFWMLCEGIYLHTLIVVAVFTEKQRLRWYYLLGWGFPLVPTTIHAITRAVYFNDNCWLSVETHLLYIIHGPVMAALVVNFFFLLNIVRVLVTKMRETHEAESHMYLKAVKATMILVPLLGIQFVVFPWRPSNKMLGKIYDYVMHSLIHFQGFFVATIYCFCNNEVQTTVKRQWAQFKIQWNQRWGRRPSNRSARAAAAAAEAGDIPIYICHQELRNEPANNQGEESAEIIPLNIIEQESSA
Outline: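 BHK hCTR membranes 35 ng/μL + SPA beads 0.05 mg/well; buffer 50 mM Hepes pH 7.4, 1 mM CaCl2, 5 mM MgCl₂, 0.1% OA, 0.02% Tween20. 120 min, 25° C., shaking. Scintillation count; IC50 by one-site binding competition.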

[2] = molecular target: T1, human calcitonin receptor; test: ratio IC50 hCTR / IC50 hAmylin-R (reference: human amylin receptor), SPA competition assays
Outline: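 Competition binding by SPA with cell membranes (35 ng/μL) and SPA beads in 50 mM Hepes pH 7.4 with 1 mM CaCl2, 5 mM MgCl2, 0.1% OA and 0.02% Tween20. Incubated 120 min at 25 °C with shaking, then counted.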

[3] = molecular target: T2, human amylin receptor (amylin 3(a) receptor: human calcitonin receptor with RAMP-3) (human, UniProt P30988 25-474; O60896 24-148); test: SPA competition with 125I-rat amylin on membranes of BHK cells with human calcitonin receptor and RAMP-3 (Assay V)
T2 construct: whole, on cells; Assay used cell membranes of the Amylin 3(a)/CRE-luc BHK cells, not intact cells; also called hAmylin-R; hAmylinR
T2 sequence (looked up) 1: T1 sequence (looked up)
T2 sequence (looked up) 2: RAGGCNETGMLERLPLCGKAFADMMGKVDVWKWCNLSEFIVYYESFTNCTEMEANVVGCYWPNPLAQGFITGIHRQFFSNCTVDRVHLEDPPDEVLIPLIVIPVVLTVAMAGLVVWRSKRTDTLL
Outline: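 SPA beads with BHK Amylin 3(a)/CRE-luc cell membranes (35 ng/μL final) in 50 mM Hepes pH 7.4, 1 mM CaCl2, 5 mM MgCl₂, 0.1% OA, 0.02% Tween20.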

B1: N^ε1-[(4S)-4-carboxy-4-(19-carboxynonadecanoylamino)butanoyl]-[Ala14,Arg17,Pro21,Pro27,His34]-h-amylin (peptide)
peptide: K([γGlu-C20 diacid])CNTATCATQRLAAFLRHSSPNFGAIPSSTNVGHNTY-NH2
modifications: disulfide 2-7; N-terminus assumed
SMILES: CC[C@H](C)[C@H](NC(=O)[C@H](C)NC(=O)CNC(=O)[C@H](Cc1ccccc1)NC(=O)[C@H](CC(N)=O)NC(=O)[C@@H]1CCCN1C(=O)[C@H](CO)NC(=O)[C@H](CO)NC(=O)[C@H](Cc1c[nH]cn1)NC(=O)[C@H](CCCNC(=N)N)NC(=O)[C@H](CC(C)C)NC(=O)[C@H](Cc1ccccc1)NC(=O)[C@H](C)NC(=O)[C@H](C)NC(=O)[C@H](CC(C)C)NC(=O)[C@H](CCCNC(=N)N)NC(=O)[C@H](CCC(N)=O)NC(=O)[C@@H](NC(=O)[C@H](C)NC(=O)[C@@H]1CSSC[C@H](NC(=O)[C@@H](N)CCCCNC(=O)CC[C@H](NC(=O)CCCCCCCCCCCCCCCCCCC(=O)O)C(=O)O)C(=O)N[C@@H](CC(N)=O)C(=O)N[C@@H]([C@@H](C)O)C(=O)N[C@@H](C)C(=O)N[C@@H]([C@@H](C)O)C(=O)N1)[C@@H](C)O)C(=O)N1CCC[C@H]1C(=O)N[C@@H](CO)C(=O)N[C@@H](CO)C(=O)N[C@H](C(=O)N[C@@H](CC(N)=O)C(=O)N[C@H](C(=O)NCC(=O)N[C@@H](Cc1c[nH]cn1)C(=O)N[C@@H](CC(N)=O)C(=O)N[C@H](C(=O)N[C@@H](Cc1ccc(O)cc1)C(N)=O)[C@@H](C)O)C(C)C)[C@@H](C)O
notes: also called compound 93
IC50 [1]: 17.8 nM
Ratio hCT/hAmylin binding [2]: 101
IC50 [3]: 0.176 nM

B4: N^ε1-[(4S)-4-carboxy-4-(19-carboxynonadecanoylamino)butanoyl]-[Ala14,Arg17,Pro21,Pro27,Pro34]-h-amylin (peptide)
peptide: K([γGlu-C20 diacid])CNTATCATQRLAAFLRHSSPNFGAIPSSTNVGPNTY-NH2
modifications: disulfide 2-7; N-terminus assumed
SMILES: CC[C@H](C)[C@H](NC(=O)[C@H](C)NC(=O)CNC(=O)[C@H](Cc1ccccc1)NC(=O)[C@H](CC(N)=O)NC(=O)[C@@H]1CCCN1C(=O)[C@H](CO)NC(=O)[C@H](CO)NC(=O)[C@H](Cc1c[nH]cn1)NC(=O)[C@H](CCCNC(=N)N)NC(=O)[C@H](CC(C)C)NC(=O)[C@H](Cc1ccccc1)NC(=O)[C@H](C)NC(=O)[C@H](C)NC(=O)[C@H](CC(C)C)NC(=O)[C@H](CCCNC(=N)N)NC(=O)[C@H](CCC(N)=O)NC(=O)[C@@H](NC(=O)[C@H](C)NC(=O)[C@@H]1CSSC[C@H](NC(=O)[C@@H](N)CCCCNC(=O)CC[C@H](NC(=O)CCCCCCCCCCCCCCCCCCC(=O)O)C(=O)O)C(=O)N[C@@H](CC(N)=O)C(=O)N[C@@H]([C@@H](C)O)C(=O)N[C@@H](C)C(=O)N[C@@H]([C@@H](C)O)C(=O)N1)[C@@H](C)O)C(=O)N1CCC[C@H]1C(=O)N[C@@H](CO)C(=O)N[C@@H](CO)C(=O)N[C@H](C(=O)N[C@@H](CC(N)=O)C(=O)N[C@H](C(=O)NCC(=O)N1CCC[C@H]1C(=O)N[C@@H](CC(N)=O)C(=O)N[C@H](C(=O)N[C@@H](Cc1ccc(O)cc1)C(N)=O)[C@@H](C)O)C(C)C)[C@@H](C)O
notes: also called compound 94
IC50 [1]: 6.86 nM
Ratio hCT/hAmylin binding [2]: 46.3
IC50 [3]: 0.148 nM

B5: N^ε1-[(4S)-4-carboxy-4-(19-carboxynonadecanoylamino)butanoyl]-[Arg14,Arg17,Pro21,Pro27]-h-amylin (peptide)
peptide: K([γGlu-C20 diacid])CNTATCATQRLARFLRHSSPNFGAIPSSTNVGSNTY-NH2
modifications: disulfide 2-7; N-terminus assumed
SMILES: CC[C@H](C)[C@H](NC(=O)[C@H](C)NC(=O)CNC(=O)[C@H](Cc1ccccc1)NC(=O)[C@H](CC(N)=O)NC(=O)[C@@H]1CCCN1C(=O)[C@H](CO)NC(=O)[C@H](CO)NC(=O)[C@H](Cc1c[nH]cn1)NC(=O)[C@H](CCCNC(=N)N)NC(=O)[C@H](CC(C)C)NC(=O)[C@H](Cc1ccccc1)NC(=O)[C@H](CCCNC(=N)N)NC(=O)[C@H](C)NC(=O)[C@H](CC(C)C)NC(=O)[C@H](CCCNC(=N)N)NC(=O)[C@H](CCC(N)=O)NC(=O)[C@@H](NC(=O)[C@H](C)NC(=O)[C@@H]1CSSC[C@H](NC(=O)[C@@H](N)CCCCNC(=O)CC[C@H](NC(=O)CCCCCCCCCCCCCCCCCCC(=O)O)C(=O)O)C(=O)N[C@@H](CC(N)=O)C(=O)N[C@@H]([C@@H](C)O)C(=O)N[C@@H](C)C(=O)N[C@@H]([C@@H](C)O)C(=O)N1)[C@@H](C)O)C(=O)N1CCC[C@H]1C(=O)N[C@@H](CO)C(=O)N[C@@H](CO)C(=O)N[C@H](C(=O)N[C@@H](CC(N)=O)C(=O)N[C@H](C(=O)NCC(=O)N[C@@H](CO)C(=O)N[C@@H](CC(N)=O)C(=O)N[C@H](C(=O)N[C@@H](Cc1ccc(O)cc1)C(N)=O)[C@@H](C)O)C(C)C)[C@@H](C)O
notes: also called compound 83
IC50 [1]: 137 nM
Ratio hCT/hAmylin binding [2]: 146
IC50 [3]: 0.939 nM

More lines, now with the values ahead:

IC50 [1]: 36.4 nM
Ratio hCT/hAmylin binding [2]: 46.1
IC50 [3]: 0.79 nM
B2: N^ε1-[(4S)-4-carboxy-4-(19-carboxynonadecanoylamino)butanoyl]-[Arg17,Pro21,Pro27,Arg34]-h-amylin (peptide)
peptide: K([γGlu-C20 diacid])CNTATCATQRLANFLRHSSPNFGAIPSSTNVGRNTY-NH2
modifications: disulfide 2-7; N-terminus assumed
SMILES: CC[C@H](C)[C@H](NC(=O)[C@H](C)NC(=O)CNC(=O)[C@H](Cc1ccccc1)NC(=O)[C@H](CC(N)=O)NC(=O)[C@@H]1CCCN1C(=O)[C@H](CO)NC(=O)[C@H](CO)NC(=O)[C@H](Cc1c[nH]cn1)NC(=O)[C@H](CCCNC(=N)N)NC(=O)[C@H](CC(C)C)NC(=O)[C@H](Cc1ccccc1)NC(=O)[C@H](CC(N)=O)NC(=O)[C@H](C)NC(=O)[C@H](CC(C)C)NC(=O)[C@H](CCCNC(=N)N)NC(=O)[C@H](CCC(N)=O)NC(=O)[C@@H](NC(=O)[C@H](C)NC(=O)[C@@H]1CSSC[C@H](NC(=O)[C@@H](N)CCCCNC(=O)CC[C@H](NC(=O)CCCCCCCCCCCCCCCCCCC(=O)O)C(=O)O)C(=O)N[C@@H](CC(N)=O)C(=O)N[C@@H]([C@@H](C)O)C(=O)N[C@@H](C)C(=O)N[C@@H]([C@@H](C)O)C(=O)N1)[C@@H](C)O)C(=O)N1CCC[C@H]1C(=O)N[C@@H](CO)C(=O)N[C@@H](CO)C(=O)N[C@H](C(=O)N[C@@H](CC(N)=O)C(=O)N[C@H](C(=O)NCC(=O)N[C@@H](CCCNC(=N)N)C(=O)N[C@@H](CC(N)=O)C(=O)N[C@H](C(=O)N[C@@H](Cc1ccc(O)cc1)C(N)=O)[C@@H](C)O)C(C)C)[C@@H](C)O
notes: also called compound 79

IC50 [1]: 50.7 nM
Ratio hCT/hAmylin binding [2]: 118
IC50 [3]: 0.428 nM
B3: N^ε1-[(4S)-4-carboxy-4-(19-carboxynonadecanoylamino)butanoyl]-[Arg17,Pro21,Pro27,His34]-h-amylin (peptide)
peptide: K([γGlu-C20 diacid])CNTATCATQRLANFLRHSSPNFGAIPSSTNVGHNTY-NH2
modifications: disulfide 2-7; N-terminus assumed
SMILES: CC[C@H](C)[C@H](NC(=O)[C@H](C)NC(=O)CNC(=O)[C@H](Cc1ccccc1)NC(=O)[C@H](CC(N)=O)NC(=O)[C@@H]1CCCN1C(=O)[C@H](CO)NC(=O)[C@H](CO)NC(=O)[C@H](Cc1c[nH]cn1)NC(=O)[C@H](CCCNC(=N)N)NC(=O)[C@H](CC(C)C)NC(=O)[C@H](Cc1ccccc1)NC(=O)[C@H](CC(N)=O)NC(=O)[C@H](C)NC(=O)[C@H](CC(C)C)NC(=O)[C@H](CCCNC(=N)N)NC(=O)[C@H](CCC(N)=O)NC(=O)[C@@H](NC(=O)[C@H](C)NC(=O)[C@@H]1CSSC[C@H](NC(=O)[C@@H](N)CCCCNC(=O)CC[C@H](NC(=O)CCCCCCCCCCCCCCCCCCC(=O)O)C(=O)O)C(=O)N[C@@H](CC(N)=O)C(=O)N[C@@H]([C@@H](C)O)C(=O)N[C@@H](C)C(=O)N[C@@H]([C@@H](C)O)C(=O)N1)[C@@H](C)O)C(=O)N1CCC[C@H]1C(=O)N[C@@H](CO)C(=O)N[C@@H](CO)C(=O)N[C@H](C(=O)N[C@@H](CC(N)=O)C(=O)N[C@H](C(=O)NCC(=O)N[C@@H](Cc1c[nH]cn1)C(=O)N[C@@H](CC(N)=O)C(=O)N[C@H](C(=O)N[C@@H](Cc1ccc(O)cc1)C(N)=O)[C@@H](C)O)C(C)C)[C@@H](C)O
notes: also called compound 77
